In article PMC7644609 (Proteins, 2020):

Molecular target: the molecule itself
Assay: crystal structure

B1: dCaprin fragment (residues 187-309), dimerization domain of Drosophila melanogaster Caprin (domain or fragment)
chain: GPSSPSRKDNLAKTIAETAKIREVLIIQNVLNCFNDDQVRSDFLNGENGAKKLENTELELLEKFFIETQTRRPETADDVSFIATAQKSAELFYSTINARPKSFGEVSFEKLRSLFQQIQDSGYLDKYYL
modifications: Se-Met labelled (L-seleno-methionine in place of methionine) in the crystal used for the structure
- stoichiometry N: 2
